B1: TaHPPD2-02: native HPPD of Triticum aestivum ecotype 2, UniProt Q45FE8, SEQ ID NO: 183 (protein, listed as Triticum aestivum)
chain: MPPTPTTPAATGAGAAAAVTPEHARPRRMVRFNPRSDRFHTLSFHHVEFWCADAASAAGRFAFALGAPLAARSDLSTGNSVHASQLLRSGNLAFLFTAPYANGCDAATASLPSFSADAARRFSADHGLAVRSIALRVADAAEAFRASVDGGARPAFSPVDLGRGFGFAEVELYGDVVLRFVSHPDDTDVPFLPGFEGVSNPDAVDYGLTRFDHVVGNVPELAPAAAYVAGFAGFHEFAEFTTEDVGTAESGLNSMVLANNSEGVLLPLNEPVHGTKRRSQIQTFLEHHGGSGVQHIAVASSDVLRTLREMRARSAMGGFDFLPPRCRKYYEGVRRIAGDVLSEAQIKECQELGVLVDRDDQGVLLQIFTKPVGDRPTLFLEMIQRIGCMEKDERGEEYQKGGCGGFGKGNFSELFKSIEDYEKSLEAKQSAAVQGS
modifications: TaHPPD2 Amino Acid Sequence
B2: TaHPPD3m-F372A-02: Triticum aestivum ecotype 3 HPPD mutant F372A, SEQ ID NO: 192 (protein)
chain: MPPTPTTPAATGAAAAAAVTPEHARPRRMVRFNPRSDRFHTLAFHHVEFWCADAASAAGRFAFALGAPLAARSDLSTGNSVHASQLLRSGNLAFLFTAPYANGCDAATASLPSFSADAARRFSADHGLAVRSIALRVADAAEAFRASVDGGARPAFSPVDLGRGFGFAEVELYGDVVLRFVSHPDDTDVPFLPGFEGVSNPDAVDYGLTRFDHVVGNVPELAPAAAYVAGFAGFHEFAEFTTEDVGTAESGLNSMVLANNSEGVLLPLNEPVHGTKRRSQIQTFLEHHGGPGVQHIAVASSDVLRTLREMRARSAMGGFDFLPPPLPKYYEGVRRIAGDVLSEAQIKECQELGVLVDRDDQGVLLQIATKPVGDRPTLFLEMIQRIGCMEKDERGEEYQKGGCGGFGKGNFSELFKSIEDYEKSLEAKQSAAVQAS
modifications: TaHPPD3m-F372A Amino Acid Sequence
B3: TaHPPD3-02: native HPPD of Triticum aestivum ecotype 3, UniProt A0A3B6PKV0, SEQ ID NO: 189 (protein, listed as Triticum aestivum)
chain: MPPTPTTPAATGAAAAAAVTPEHARPRRMVRFNPRSDRFHTLAFHHVEFWCADAASAAGRFAFALGAPLAARSDLSTGNSVHASQLLRSGNLAFLFTAPYANGCDAATASLPSFSADAARRFSADHGLAVRSIALRVADAAEAFRASVDGGARPAFSPVDLGRGFGFAEVELYGDVVLRFVSHPDDTDVPFLPGFEGVSNPDAVDYGLTRFDHVVGNVPELAPAAAYVAGFAGFHEFAEFTTEDVGTAESGLNSMVLANNSEGVLLPLNEPVHGTKRRSQIQTFLEHHGGPGVQHIAVASSDVLRTLREMRARSAMGGFDFLPPPLPKYYEGVRRIAGDVLSEAQIKECQELGVLVDRDDQGVLLQIFTKPVGDRPTLFLEMIQRIGCMEKDERGEEYQKGGCGGFGKGNFSELFKSIEDYEKSLEAKQSAAVQAS
modifications: TaHPPD3 Amino Acid Sequence
B4: TaHPPD2m-F372A-02: Triticum aestivum ecotype 2 HPPD mutant F372A, SEQ ID NO: 186 (protein)
chain: MPPTPTTPAATGAGAAAAVTPEHARPRRMVRFNPRSDRFHTLSFHHVEFWCADAASAAGRFAFALGAPLAARSDLSTGNSVHASQLLRSGNLAFLFTAPYANGCDAATASLPSFSADAARRFSADHGLAVRSIALRVADAAEAFRASVDGGARPAFSPVDLGRGFGFAEVELYGDVVLRFVSHPDDTDVPFLPGFEGVSNPDAVDYGLTRFDHVVGNVPELAPAAAYVAGFAGFHEFAEFTTEDVGTAESGLNSMVLANNSEGVLLPLNEPVHGTKRRSQIQTFLEHHGGSGVQHIAVASSDVLRTLREMRARSAMGGFDFLPPRCRKYYEGVRRIAGDVLSEAQIKECQELGVLVDRDDQGVLLQIATKPVGDRPTLFLEMIQRIGCMEKDERGEEYQKGGCGGFGKGNFSELFKSIEDYEKSLEAKQSAAVQGS
modifications: TaHPPD2m-F372A Amino Acid Sequence
B5: TaHPPD4-02: native HPPD of Triticum aestivum ecotype 4, UniProt A0A3B6NLC6, SEQ ID NO: 195 (protein, listed as Triticum aestivum)
chain: MPPTPTTPAATGAAAVTPEHARPRRMVRFNPRSDRFHTLAFHHVEFWCADAASAAGRFAFALGAPLAARSDLSTGNSVHASQLLRSGNLAFLFTAPYANGCDAATASLPSFSADAARQFSADHGLAVRSIALRVADAAEAFRASVDGGARPAFSPVDLGRGFGFAEVELYGDVVLRFVSHPDGRDVPFLPGFEGVSNPDAVDYGLTRFDHVVGNVPELAPAAAYVAGFTGFHEFAEFTTEDVGTAESGLNSMVLANNSEGVLLPLNEPVHGTKRRSQIQTFLEHHGGSGVQHIAVASSDVLRTLREMRARSAMGGFDFLPPPLPKYYEGVRRIAGDVLSEAQIKECQELGVLVDRDDQGVLLQIFTKPVGDRPTLFLEMIQRIGCMEKDERGEEYQKGGCGGFGKGNFSELFKSIEDYEKSLEAKQSAAVQGS
modifications: TaHPPD4 Amino Acid Sequence
B6: TaHPPD4m-F372A-02: Triticum aestivum ecotype 4 HPPD mutant F372A, SEQ ID NO: 198 (protein)
chain: MPPTPTTPAATGAAAVTPEHARPRRMVRFNPRSDRFHTLAFHHVEFWCADAASAAGRFAFALGAPLAARSDLSTGNSVHASQLLRSGNLAFLFTAPYANGCDAATASLPSFSADAARQFSADHGLAVRSIALRVADAAEAFRASVDGGARPAFSPVDLGRGFGFAEVELYGDVVLRFVSHPDGRDVPFLPGFEGVSNPDAVDYGLTRFDHVVGNVPELAPAAAYVAGFTGFHEFAEFTTEDVGTAESGLNSMVLANNSEGVLLPLNEPVHGTKRRSQIQTFLEHHGGSGVQHIAVASSDVLRTLREMRARSAMGGFDFLPPPLPKYYEGVRRIAGDVLSEAQIKECQELGVLVDRDDQGVLLQIATKPVGDRPTLFLEMIQRIGCMEKDERGEEYQKGGCGGFGKGNFSELFKSIEDYEKSLEAKQSAAVQGS
modifications: TaHPPD4m-F372A Amino Acid Sequence

System: Arabidopsis thaliana T1 plants
Assay: Topramezone tolerance of transgenic Arabidopsis thaliana T1 plants (pesticide damage grade by bleached leaf area, score, resistance evaluation)
Type: in vivo
Conditions: HPPDs from ecotypes of Triticum aestivum; for Classification and statistics of pesticide damage grade: Grade 0 / Classification and statistics of pesticide damage grade: Grade 1 / Classification and statistics of pesticide damage grade: Grade 2 / Classification and statistics of pesticide damage grade: Grade 3: number of plants
In short: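 Herbicide tolerance was judged per plant on a bleaching scale (grade 0 no bleaching to grade 3 fully bleached) 7 DAT. Topramezone doses were 0, 25, 50 and 100 g ai/ha on 18-day-old T1 and wild-type plants.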

Molecule | Resistance evaluation (topramezone 25 g ai/ha (1x)) | Scores (topramezone 25 g ai/ha (1x)) | Classification and statistics of pesticide damage grade: Grade 0 (topramezone 25 g ai/ha (1x)) | Classification and statistics of pesticide damage grade: Grade 1 (topramezone 25 g ai/ha (1x)) | Classification and statistics of pesticide damage grade: Grade 2 (topramezone 25 g ai/ha (1x)) | Classification and statistics of pesticide damage grade: Grade 3 (topramezone 25 g ai/ha (1x)) | Resistance evaluation (topramezone 100 g ai/ha (4x)) | Scores (topramezone 100 g ai/ha (4x)) | Classification and statistics of pesticide damage grade: Grade 0 (topramezone 100 g ai/ha (4x)) | Classification and statistics of pesticide damage grade: Grade 1 (topramezone 100 g ai/ha (4x)) | Classification and statistics of pesticide damage grade: Grade 2 (topramezone 100 g ai/ha (4x)) | Classification and statistics of pesticide damage grade: Grade 3 (topramezone 100 g ai/ha (4x))
B1 | non-resistant (non-resistant plants (scores 68-100)) | 100 | 0 | 0 | 0 | 16 | non-resistant (non-resistant plants (scores 68-100)) | 100 | 0 | 0 | 0 | 16
B2 | highly resistant (highly resistant plants (scores 0-15)) | 0 | 16 | 0 | 0 | 0 | highly resistant (highly resistant plants (scores 0-15)) | 8 | 12 | 4 | 0 | 0
B3 | non-resistant (non-resistant plants (scores 68-100)) | 100 | 0 | 0 | 0 | 16 | non-resistant (non-resistant plants (scores 68-100)) | 100 | 0 | 0 | 0 | 16
B4 | highly resistant (highly resistant plants (scores 0-15)) | 0 | 16 | 0 | 0 | 0 | moderately resistant (moderately resistant plants (scores 16-33)) | 17 | 8 | 8 | 0 | 0
B5 | non-resistant (non-resistant plants (scores 68-100)) | 92 | 0 | 0 | 4 | 12 | non-resistant (non-resistant plants (scores 68-100)) | 100 | 0 | 0 | 0 | 16
B6 | highly resistant (highly resistant plants (scores 0-15)) | 0 | 16 | 0 | 0 | 0 | highly resistant (highly resistant plants (scores 0-15)) | 10 | 11 | 5 | 0 | 0
